These results are taken from paper PMC2734569, “Functional mapping of the fission yeast DNA polymerase δ B-subunit Cdc1 by site-directed and random pentapeptide insertion mutagenesis” (BMC Molecular Biology, 2009).

Assay in all cases: two-hybrid; LexA-Cdc1 bait (pBTM116 or pBTM116BN) with Gal4 activation domain-Cdc27 prey (pGAD2F-Cdc27) in S. cerevisiae CTY10-5d; ONPG liquid culture beta-galactosidase assay, mean of triplicates, as percent of wild-type Cdc1
What all share (conditions): partners not purified

The target in assay [1] is T1, Cdc1-J15 (Schizosaccharomyces pombe, UniProt P87324 1-462, Gln-GlyValProLeuGln-Val).
T1 construct: Cdc1, S. pombe, with a pentapeptide inserted after residue 203; source: yeast two-hybrid fusion, in S. cerevisiae CTY10-5d
T1 sequence (looked up): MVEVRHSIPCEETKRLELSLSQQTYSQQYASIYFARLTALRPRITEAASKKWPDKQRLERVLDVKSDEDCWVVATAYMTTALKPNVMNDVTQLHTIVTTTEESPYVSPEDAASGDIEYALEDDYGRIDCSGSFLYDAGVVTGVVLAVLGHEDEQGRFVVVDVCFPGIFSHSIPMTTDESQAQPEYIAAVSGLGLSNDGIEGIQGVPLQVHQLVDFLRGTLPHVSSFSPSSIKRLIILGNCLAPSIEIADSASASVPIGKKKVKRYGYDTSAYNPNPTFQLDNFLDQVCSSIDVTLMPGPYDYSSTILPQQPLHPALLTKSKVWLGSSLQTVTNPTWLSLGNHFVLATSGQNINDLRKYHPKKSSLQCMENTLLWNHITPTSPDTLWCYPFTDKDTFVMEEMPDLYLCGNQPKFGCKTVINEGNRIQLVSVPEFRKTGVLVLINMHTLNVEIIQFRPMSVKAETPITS

For assay [2], the target named is T2, Cdc1-J21 (Schizosaccharomyces pombe, UniProt P87324 1-462, Leu-GlyValProGlnLeu-Asp).
T2 construct: Cdc1, S. pombe, with a pentapeptide inserted after residue 275; source: yeast two-hybrid fusion, in S. cerevisiae CTY10-5d
T2 sequence (looked up): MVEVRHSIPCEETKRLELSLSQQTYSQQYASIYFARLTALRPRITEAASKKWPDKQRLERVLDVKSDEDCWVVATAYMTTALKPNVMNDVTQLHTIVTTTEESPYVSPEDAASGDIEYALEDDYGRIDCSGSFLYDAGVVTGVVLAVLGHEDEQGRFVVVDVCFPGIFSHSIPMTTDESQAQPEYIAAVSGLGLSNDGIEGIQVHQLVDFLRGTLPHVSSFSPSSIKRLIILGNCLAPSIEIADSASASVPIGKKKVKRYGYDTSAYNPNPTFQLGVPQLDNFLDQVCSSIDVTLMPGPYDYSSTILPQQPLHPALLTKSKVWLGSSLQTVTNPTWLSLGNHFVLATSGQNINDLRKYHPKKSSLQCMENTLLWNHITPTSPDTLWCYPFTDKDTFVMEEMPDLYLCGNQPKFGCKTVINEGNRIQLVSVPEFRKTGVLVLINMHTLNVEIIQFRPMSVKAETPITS

For assay [3], the target named is T3, Cdc1-A5 (Schizosaccharomyces pombe, UniProt P87324 1-462, Asn328Ala).
T3 construct: Cdc1, S. pombe, point mutant; source: yeast two-hybrid fusion, in S. cerevisiae CTY10-5d
T3 sequence (looked up): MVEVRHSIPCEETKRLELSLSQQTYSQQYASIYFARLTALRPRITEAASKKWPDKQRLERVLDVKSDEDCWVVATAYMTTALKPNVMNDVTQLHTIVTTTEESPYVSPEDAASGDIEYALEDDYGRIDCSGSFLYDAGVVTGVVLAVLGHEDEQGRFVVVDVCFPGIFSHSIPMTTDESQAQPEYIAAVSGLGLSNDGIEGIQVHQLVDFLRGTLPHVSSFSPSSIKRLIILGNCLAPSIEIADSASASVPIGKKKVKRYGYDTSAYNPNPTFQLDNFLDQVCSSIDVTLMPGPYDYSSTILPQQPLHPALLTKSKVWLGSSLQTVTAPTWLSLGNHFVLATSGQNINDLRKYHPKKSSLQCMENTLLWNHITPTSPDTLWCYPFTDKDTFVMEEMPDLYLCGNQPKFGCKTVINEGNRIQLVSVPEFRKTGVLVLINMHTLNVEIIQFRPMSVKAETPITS

Assay [4] addresses T4, Cdc1-A7 (Schizosaccharomyces pombe, UniProt P87324 1-462, Gly344Ala).
T4 construct: Cdc1, S. pombe, point mutant; source: yeast two-hybrid fusion, in S. cerevisiae CTY10-5d
T4 sequence (looked up): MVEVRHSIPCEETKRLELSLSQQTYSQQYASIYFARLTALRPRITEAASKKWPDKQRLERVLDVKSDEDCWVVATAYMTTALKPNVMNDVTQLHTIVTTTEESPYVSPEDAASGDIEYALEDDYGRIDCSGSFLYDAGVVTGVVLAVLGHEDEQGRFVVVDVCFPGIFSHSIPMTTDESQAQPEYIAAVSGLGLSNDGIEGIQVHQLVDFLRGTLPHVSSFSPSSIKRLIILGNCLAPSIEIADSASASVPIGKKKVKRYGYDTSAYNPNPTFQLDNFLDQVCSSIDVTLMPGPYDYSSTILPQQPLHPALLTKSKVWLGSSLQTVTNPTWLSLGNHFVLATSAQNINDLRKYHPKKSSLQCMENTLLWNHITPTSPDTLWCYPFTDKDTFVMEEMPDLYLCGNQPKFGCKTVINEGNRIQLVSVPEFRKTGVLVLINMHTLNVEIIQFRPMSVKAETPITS

B1: Cdc27 (fission yeast DNA polymerase delta C-subunit) (natural protein, Schizosaccharomyces pombe, UniProt P30261 1-372, looked up)
chain: MEEWRNFLDIKVINESSLVTVDNLSLQLDISSEKAQEYLNMFYQGNDFLYPIYLIHGQPIDDEINLEIDEESQPISNFPVLQYILCDKSSLQEKQSRLKSGYKTVIFALSSAPLSDFDELLPAVYEIREKDVLYKKEDADKYGFIFNENSVPRVLKKAPSTHSPQLSVPSKTSTIDKTDTRSTEKTKGKDIFSNARNQKGNSSRKNKKAPLENHKEKEPLLPKEEKLSEQAKRERDDLKNIMQLEDESVSTTSVHDSEDDNLDSNNFQLEIGTEAKSAAPDEPQEIIKSVSGGKRRGKRKVKKYATTKDEEGFLVTKEEEVWESFSEDENISTGTSNVVRNKPTTVNIATKKKNTAQSKPQQKSIMSFFGKK
notes: DNA polymerase delta C-subunit Cdc27, S. pombe; prey plasmid pGAD2F-Cdc27; also called pGAD2F-Cdc27; source: yeast two-hybrid fusion, in S. cerevisiae CTY10-5d
Consider B1, for which the “two-hybrid beta-galactosidase activity, % of wild-type Cdc1” value was 78% in assay [1], below 1% in assay [2], 37% in assay [3] and below 1% in assay [4].
